Among the data in US20190374629A1 are Kd values, retold here.

Assay [1] has as its target basigin (human) (UniProt P35613). Nature of the assay: SPR (BIAcore T200), basigin amine-coupled to a CM5 chip; analyte PfRH5ΔNL lyophilised and resuspended before measurement, two-fold dilutions from a top concentration of 8 µM, global 1:1 fit [lower left panel (lyophilised].
The target is the same in assay [2]. Kind of assay: SPR, BIAcore T200, basigin amine-coupled on CM5 chip, RH5 as analyte 8-0.0625 µM, global 1:1 fit, 20 °C.
Assay [3] has the same target. Nature of the assay: SPR (BIAcore T200), basigin amine-coupled to a CM5 chip; analyte PfRH5ΔNLHS1 lyophilised and resuspended before measurement, two-fold dilutions from a top concentration of 8 µM, global 1:1 fit [lower right panel (lyophilised]. On the technique in general: SPR reads the build-up and loss of mass on a sensor chip optically.

Consider “PfRH5ΔNL (from UniProt Q8IFM5 140-526) (ligand)”, for which the figures for the Kd with basigin (human) [1] and with basigin (human) [2] were 310 nM and 290 nM, respectively.
On to “PfRH5ΔNLHS1 (from UniProt Q8IFM5 140-526) (ligand)”, for which the Kd (as a rule, the equilibrium constant for the complex coming apart) was determined as 300 nM with basigin (human) [3] and 410 nM in the assay with basigin (human) [2].
